Reference: article PMC5370183, “Kinetics of the LOV domain of ZEITLUPE determine its circadian function in Arabidopsis” (eLife, 2017)

Experiments:
[1] = target: the molecule itself; experiment: SEC; Superdex 200 10/300 analytical column in stabilizing buffer (50 mM Tris pH 7 or 50 mM Hepes pH 8 with 100 mM and 10% glycerol); apparent MW against standards; G80R in dark and light state
[2] = target: the molecule itself; experiment: SEC; R95A at 130 µM and 13 µM, dark and light state; elution not concentration dependent; dimer to monomers

Protein | stoichiometry N [1] | Kd [2] [nM] | stoichiometry N [2]
WT ZTL 29–165 (ZEITLUPE LOV domain construct ZTL-S) (domain or fragment, Arabidopsis thaliana, UniProt Q94BT6 29-165, looked up, also called ZTL LOV domain) GGPIPYPVGNLLHTAPCGFVVTDAVEPDQPIIYVNTVFEMVTGYRAEEVLGGNCRFLQCRGPFAKRRHPLVDSMVVSEIRKCIDEGIEFQGELLNFRKDGSPLMNRLRLTPIYGDDDTITHIIGIQFFIETDIDLGP | 2 | – | –
ZTL 29–165 R95A (domain or fragment, Arabidopsis thaliana, UniProt Q94BT6 29-165, looked up) GGPIPYPVGNLLHTAPCGFVVTDAVEPDQPIIYVNTVFEMVTGYRAEEVLGGNCRFLQCRGPFAKRAHPLVDSMVVSEIRKCIDEGIEFQGELLNFRKDGSPLMNRLRLTPIYGDDDTITHIIGIQFFIETDIDLGP | – | < 200 | 2
ZTL 29–165 G80R (domain or fragment, Arabidopsis thaliana, UniProt Q94BT6 29-165, looked up, Tested by SEC in dark and light state) GGPIPYPVGNLLHTAPCGFVVTDAVEPDQPIIYVNTVFEMVTGYRAEEVLGRNCRFLQCRGPFAKRRHPLVDSMVVSEIRKCIDEGIEFQGELLNFRKDGSPLMNRLRLTPIYGDDDTITHIIGIQFFIETDIDLGP | 2 | – | –
ZTL 29–165 V48I:G80R (domain or fragment, Arabidopsis thaliana, UniProt Q94BT6 29-165, looked up, Crystallised in the dark state (5SVV) and in the light state with the C4a adduct between C82 and FMN (5SVW)) GGPIPYPVGNLLHTAPCGFIVTDAVEPDQPIIYVNTVFEMVTGYRAEEVLGRNCRFLQCRGPFAKRRHPLVDSMVVSEIRKCIDEGIEFQGELLNFRKDGSPLMNRLRLTPIYGDDDTITHIIGIQFFIETDIDLGP | 2 | – | –
ZTL 29–165 G46S:G80R (domain or fragment, Arabidopsis thaliana, UniProt Q94BT6 29-165, looked up) GGPIPYPVGNLLHTAPCSFVVTDAVEPDQPIIYVNTVFEMVTGYRAEEVLGRNCRFLQCRGPFAKRRHPLVDSMVVSEIRKCIDEGIEFQGELLNFRKDGSPLMNRLRLTPIYGDDDTITHIIGIQFFIETDIDLGP | 2 | – | –
ZTL 16–165 (domain or fragment, Arabidopsis thaliana, UniProt Q94BT6 16-165, looked up, source: purified protein) SLADDEEGGLFPGGGPIPYPVGNLLHTAPCGFVVTDAVEPDQPIIYVNTVFEMVTGYRAEEVLGGNCRFLQCRGPFAKRRHPLVDSMVVSEIRKCIDEGIEFQGELLNFRKDGSPLMNRLRLTPIYGDDDTITHIIGIQFFIETDIDLGP | 2 | – | –
FKF1 28–174 (FLAVIN-BINDING, KELCH REPEAT, F-BOX 1 LOV domain) (domain or fragment, Arabidopsis thaliana, UniProt Q9C9W9 28-174, looked up, source: purified protein) NDGIEEQVEDEKLPLEVGMFYYPMTPPSFIVSDALEPDFPLIYVNRVFEVFTGYRADEVLGRNCRFLQYRDPRAQRRHPLVDPVVVSEIRRCLEEGIEFQGELLNFRKDGTPLVNRLRLAPIRDDDGTITHVIGIQVFSETTIDLDR | 2 | – | –
